US20140287471A1, “VARIANT CBH I POLYPEPTIDES WITH REDUCED PRODUCT INHIBITION” (BP CORPORATION NORTN AMERICA INC., priority 2011, published 2014)
Changes are numbered by the printed parent chain. In names and notes the source's numbering stands.

B1: 268— Phe (protein, UniProt P62694 18-513, looked up, variant R268F)
Exoglucanase 1: QSACTLQSETHPPLTWQKCSSGGTCTQQTGSVVIDANWRWTHATNSSTNCYDGNTWSSTLCPDNETCAKNCCLDGAAYASTYGVTTSGNSLSIGFVTQSAQKNVGARLYLMASDTTYQEFTLLGNEFSFDVDVSQLPCGLNGALYFVSMDADGGVSKYPTNTAGAKYGTGYCDSQCPRDLKFINGQANVEGWEPSSNNANTGIGGHGSCCSEMDIWEANSISEALTPHPCTTVGQEICEGDGCGGTYSDNFYGGTCDPDGCDWNPYRLGNTSFYGPGSSFTLDTTKKLTVVTQFETSGAINRYYVQNGVTFQQPNAELGSYSGNELNDDYCTAEEAEFGGSSFSDKGGLTQFKKATSGGMVLVMSLWDDYYANMLWLDSTYPTNETSSTPGAVRGSCSTSSGVPAQVESQSPNAKVTFSNIKFGPIGSTGNPSGGNPPGGNRGTTTTRRPATTTGSSPGPTQSHYGQCGGIGYSGPTVCASGTTCQVLNPYYSQCL
B2: 268— Trp (protein, UniProt P62694 18-513, looked up, variant R268W)
Exoglucanase 1: B1 Exoglucanase 1 with F251W
B3: 268— Tyr (protein, UniProt P62694 18-513, looked up, variant R268Y)
Exoglucanase 1: B1 Exoglucanase 1 with F251Y
B4: 268— Asp (protein, UniProt P62694 18-513, looked up, variant R268D)
Exoglucanase 1: B1 Exoglucanase 1 with F251D
B5: 268— Glu (protein, UniProt P62694 18-513, looked up, variant R268E)
Exoglucanase 1: B1 Exoglucanase 1 with F251E
B6: 268— His (protein, UniProt P62694 18-513, looked up, variant R268H)
Exoglucanase 1: B1 Exoglucanase 1 with F251H
B7: 268_+411A Gln (protein, UniProt P62694 18-513, looked up, variant R268Q R411A)
Exoglucanase 1: B1 Exoglucanase 1 with F251Q, R394A
B8: R411N (protein, UniProt P62694 18-513, looked up, variant R411N)
Exoglucanase 1: B1 Exoglucanase 1 with F251R, R394N
B9: R411D (protein, UniProt P62694 18-513, looked up, variant R411D)
Exoglucanase 1: B1 Exoglucanase 1 with F251R, R394D
B10: R411T (protein, UniProt P62694 18-513, looked up, variant R411T)
Exoglucanase 1: B1 Exoglucanase 1 with F251R, R394T
B11: R268F (protein, UniProt P62694 18-513, looked up, variant R268F)
Exoglucanase 1: B1 Exoglucanase 1
B12: R411L (protein, UniProt P62694 18-513, looked up, variant R411L)
Exoglucanase 1: B1 Exoglucanase 1 with F251R, R394L
B13: R411E (protein, UniProt P62694 18-513, looked up, variant R411E)
Exoglucanase 1: B1 Exoglucanase 1 with F251R, R394E
B14: R411Q (protein, UniProt P62694 18-513, looked up, variant R411Q)
Exoglucanase 1: B1 Exoglucanase 1 with F251R, R394Q
B15: 268N: CBH I variant with site 268 mutated to asparagine (protein, UniProt P62694 18-513, looked up, variant R268N)
Exoglucanase 1: B1 Exoglucanase 1 with F251N
B16: 268S: CBH I variant with site 268 mutated to serine (protein, UniProt P62694 18-513, looked up, variant R268S)
Exoglucanase 1: B1 Exoglucanase 1 with F251S
B17: 411 S: CBH I variant with site 411 mutated to serine (protein, UniProt P62694 18-513, looked up, variant R411S)
Exoglucanase 1: B1 Exoglucanase 1 with F251R, R394S
B18: R268I (protein, UniProt P62694 18-513, looked up, variant R268I)
Exoglucanase 1: B1 Exoglucanase 1 with F251I
B19: R268Y (protein, UniProt P62694 18-513, looked up, variant R268Y)
Exoglucanase 1: B1 Exoglucanase 1 with F251Y
B20: R268D (protein, UniProt P62694 18-513, looked up, variant R268D)
Exoglucanase 1: B1 Exoglucanase 1 with F251D
B21: R268R (protein, UniProt P62694 18-513, looked up)
Exoglucanase 1: B1 Exoglucanase 1 with F251R
B22: R268H (protein, UniProt P62694 18-513, looked up, variant R268H)
Exoglucanase 1: B1 Exoglucanase 1 with F251H
B23: R268T (protein, UniProt P62694 18-513, looked up, variant R268T)
Exoglucanase 1: B1 Exoglucanase 1 with F251T
B24: R268C (protein, UniProt P62694 18-513, looked up, variant R268C)
Exoglucanase 1: B1 Exoglucanase 1 with F251C
B25: R411V (protein, UniProt P62694 18-513, looked up, variant R411V)
Exoglucanase 1: B1 Exoglucanase 1 with F251R, R394V
B26: R411F (protein, UniProt P62694 18-513, looked up, variant R411F)
Exoglucanase 1: B1 Exoglucanase 1 with F251R, R394F
B27: R411C (protein, UniProt P62694 18-513, looked up, variant R411C)
Exoglucanase 1: B1 Exoglucanase 1 with F251R, R394C
B28: R411P (protein, UniProt P62694 18-513, looked up, variant R411P)
Exoglucanase 1: B1 Exoglucanase 1 with F251R, R394P
B29: 268A/411S: CBH I variant with site 268 mutated to alanine and site 411 to serine (protein, UniProt P62694 18-513, looked up, variant R268A R411S)
Exoglucanase 1: B1 Exoglucanase 1 with F251A, R394S

assay: 4-MUL assay, specific activity (Example 2); type: biochemical; settings: primary screening; 10 μL enzyme; n=1
Procedure: (§1) CBH I activity on was measured using the 4-MUL assay using gluconolactone to inhibit any BG activity. The fluorogenic 4-MUL substrate (SIGMA) was prepared at 100 mM concentration in DMSO. Assays were run in black 96-well-flat-bottomed plates (Costar) and 4-MU fluorescence was read on a BioTek H4 plate reader (ex/em 365/450 nm). Assay plates were filled with buffer (final concentrations of 100 mM MES, pH 6, 25 mM gluconolactone, with or without cellobiose; cellobiose concentrations are listed with appropriate data sets), to which enzyme mixture was added (10-30 μl, 5 μg/mL final) and then assays were initiated by addition of 4-MUL (0.5 mM final concentration in 100 μl total volume). Enzyme mixtures were either CBH I variants from harvested supernatants or standards. Standards included: a negative control, consisting of harvested supernatant from the CBH I knock-out strain; a positive control, consisting of wild-type CBH I from harvested supernatants; and, a commercial CBH I standard (E-CBHI from Megazymes). Activity standards were run by serial dilution of commercial CBH I from 40 to 0.02 μg/mL and 4-MU (SIGMA, prepared at 20 mM in DMSO) (in dilution increments of 2-fold; all dilutions were made using harvested supernatant from the knock-out control). Kinetic rates were monitored over the first 15 mins following 4-MUL addition; initial rates were calculated based on data in the linear range. After 1 hr, a final endpoint read was taken, both before and after reaction quenching (100 μL of 200 mM Sodium Carbonate, pH 10.0). Activity was calculated for kinetic and endpoint reads; background resulting from the CBH I knock-out supernatant remained negligible. 4MU standard curves and HPLC quantification values were used to calculate specific activity.
The specific activity (SA) of the variant library was evaluated in a secondary 4-MUL assay. […] On average, a mutation at position 268 increases the specific activity by 2.5 fold over that of wild type. A mutation at 268 in combination with 411 is around 1.5-1.6 fold higher than wild-type, on average.

Molecule | SA (μmol 4 MU/min/mg) (MUL Data)
B1 | 0.70 μmol 4 MU/min/mg
B2 | 1.31 μmol 4 MU/min/mg
B3 | 0.65 μmol 4 MU/min/mg
B4 | 0.67 μmol 4 MU/min/mg
B5 | 0.88 μmol 4 MU/min/mg
B6 | 1.21 μmol 4 MU/min/mg
B7 | −0.45 μmol 4 MU/min/mg

assay: 4-MUL cellobiose tolerance/inhibition assay, dose-response IC50 (Example 2); type: biochemical; settings: 1 mM cellobiose; primary screening; n=1
Procedure: as §1
Tolerance/inhibition values represent activity ratios and/or percent activity remaining/percent activity decreased in the presence versus the absence of cellobiose. Tolerant variants show less inhibition in the presence of cellobiose as compared to wild type, where an activity ratio of 1 (with vs. without a given concentration of cellobiose) is equivalent to 0% inhibition by cellobiose, or 100% tolerance. The effect of cellobiose on CBH I variant performance was monitored by dose-response in the 4MUL assay. Dose-response curves were generated by assaying variant activity in the presence of 6-8 different cellobiose concentrations ranging up to 100 mM cellobiose. CBH I samples were diluted to 5 μg/mL final concentration or were used directly in the case of protein quantification levels below 5 μg/mL. Half maximal inhibitory concentration (IC50) values were determined by plotting 4MUL activity versus cellobiose concentration and fitting with a four parameter dose-response fitting algorithm, with zero activity (or 100% inhibition) constrained to background activity (as established by CBH I knockout values) and with automatic outlier elimination (on GraphPad Prism 5).
Harvested supernatants from active variant isolates were evaluated for cellobiose tolerance at 1 mM cellobiose in the 4-MUL activity assay. Table 8 lists the tolerance of variants at 1 mM. […] Additional cellobiose concentrations at 0.25, 5, 10, 50, and 100 mM were tested leading to full dose-response curves for which half maximal inhibitory concentration (IC50) values were generated (Table 8). The IC50 values support that the variant library has decreased product inhibition, or increased tolerance to cellobiose, when compared to the wild-type enzyme (WT IC50=0.03 mM; see first entry, Table 8).
In one example, the cellobiose tolerance of the library was explored in more detail by generating dose-response curves and determining half maximal inhibitory concentration (IC50) values, the point at which the enzyme is 50% inhibited.

Molecule | Tolerance at 1 mM CB (MUL Data)
B1 | 21%
B2 | 42%
B3 | 35%
B4 | 44%
B5 | 52%
B6 | 20%

same assay, conditions: Secondary screening; 30 μl harvested supernatant (CBH I levels lower than 5 μg/mL); cellobiose range 0.00085-100 mM; read-out: IC50

Molecule | IC50
B8 | 7900 µM
B9 | 1640 µM
B10 | 2020 µM
B11 | 515 µM
B12 | 6390 µM
B13 | 3380 µM
B14 | 2510 µM

same assay, conditions: Secondary screening; CBH I levels normalized to 5 μg/mL; cellobiose range 0.00085-100 mM; read-out: IC50

Molecule | IC50
B15 | 482 µM
B16 | 452 µM
B17 | 895 µM
B18 | 484 µM
B19 | 434 µM
B20 | 467 µM
B21 | 52 µM
B22 | 283 µM
B23 | 349 µM
B24 | 351 µM
B25 | 2900 µM
B26 | 7580 µM
B27 | 1310 µM
B28 | 1270 µM
B9 | 1580 µM
B10 | 2000 µM

same assay, conditions: averaged IC50 values from Tables 8-11; read-out: measured IC50 of cellobiose (merged values)

Molecule | IC50
B15 | 490 µM

same assay, conditions: primary screening; 10 μL enzyme; cellobiose range 0.0001-100 mM; n=1; read-out: IC50 (MUL Data)

Molecule | IC50
B1 | 400 µM
B2 | 610 µM
B3 | 450 µM
B4 | 900 µM
B5 | 870 µM
B6 | 250 µM

same assay, conditions: secondary screening; CBH I levels normalized to 5 μg/mL; cellobiose range 0.0001-100 mM; read-out: Average IC50

Molecule | IC50
B15 | 405 µM
B16 | 406 µM
B17 | 762 µM
B18 | 320 µM
B19 | 344 µM
B20 | 431 µM
B21 | 46 µM
B22 | 209 µM
B23 | 360 µM
B24 | 335 µM
B25 | 3190 µM
B26 | 5390 µM
B8 | 6720 µM
B27 | 886 µM
B28 | 1050 µM

same assay, conditions: serine variants; unit not given in the legend; read-out: IC50 values (representative IC50 curves, FIG. 9)

Molecule | IC50
B16 | 450 µM
B17 | 890 µM
B29 | 6800 µM
